# How the values were obtained:
# [1] = biological target: HLA-C*05:01; assay: IEDB peptide-MHC binding, purified MHC/direct/fluorescence; filed as Kd, often an IC50 or EC50 that approximates it; ≥ and ≤ were set here for values at or beyond the usual limits of such assays; conditions: source organism: dengue virus type 1
# [2] = biological target: HLA-C*06:02; assay: as above; conditions: source organism: dengue virus type 1
# [3] = biological target: HLA-C*08:02; assay: as above
# [4] = biological target: HLA-C*14:02; assay: as above; conditions: source organism: dengue virus type 1
# [5] = biological target: HLA-A*32:15; assay: IEDB peptide-MHC binding, purified MHC/competitive/fluorescence; filed as Kd, often an IC50 or EC50 that approximates it; ≥ and ≤ were set here for values at or beyond the usual limits of such assays; conditions: source organism: dengue virus type 1
# [6] = biological target: HLA-B*15:42; assay: as above
# [7] = biological target: HLA-B*45:06; assay: as above
# [8] = biological target: HLA-B*46:01; assay: as above
# [9] = biological target: HLA-B*83:01; assay: as above
# [10] = biological target: HLA-A*02:01; assay: IEDB peptide-MHC binding, purified MHC/competitive/radioactivity; filed as Kd, often an IC50 or EC50 that approximates it; ≥ and ≤ were set here for values at or beyond the usual limits of such assays; conditions: source organism: Dengue virus 2 Jamaica/1409/1983
# [11] = biological target: HLA-A*02:03; assay: as above; conditions: source organism: Dengue virus 2 Jamaica/1409/1983
# [12] = biological target: HLA-A*02:06; assay: as above; conditions: source organism: Dengue virus 2 Jamaica/1409/1983
# [13] = biological target: HLA-A*02:17; assay: as above; conditions: source organism: Dengue virus 2 Jamaica/1409/1983
# [14] = biological target: HLA-A*68:02; assay: as above; conditions: source organism: Dengue virus 2 Jamaica/1409/1983
# [15] = biological target: HLA-A*02:01; assay: IEDB peptide-MHC binding, purified MHC/competitive/fluorescence; filed as Kd, often an IC50 or EC50 that approximates it; ≥ and ≤ were set here for values at or beyond the usual limits of such assays; conditions: source organism: Entamoeba histolytica HM-1:IMSS
# [16] = biological target: HLA-A*02:03; assay: as above; conditions: source organism: Entamoeba histolytica HM-1:IMSS
# [17] = biological target: HLA-A*02:11; assay: as above; conditions: source organism: Entamoeba histolytica HM-1:IMSS
# [18] = biological target: HLA-A*02:12; assay: as above; conditions: source organism: Entamoeba histolytica HM-1:IMSS
# [19] = biological target: HLA-A*02:16; assay: as above; conditions: source organism: Entamoeba histolytica HM-1:IMSS
# [20] = biological target: HLA-A*02:19; assay: as above; conditions: source organism: Entamoeba histolytica HM-1:IMSS
# [21] = biological target: HLA-A*03:01; assay: as above; conditions: source organism: Entamoeba histolytica HM-1:IMSS
# [22] = biological target: HLA-A*23:01; assay: as above
# [23] = biological target: HLA-A*24:03; assay: as above; conditions: source organism: Entamoeba histolytica HM-1:IMSS
# [24] = biological target: HLA-A*26:01; assay: as above; conditions: source organism: Entamoeba histolytica HM-1:IMSS
# [25] = biological target: HLA-A*29:02; assay: as above; conditions: source organism: Entamoeba histolytica HM-1:IMSS
# [26] = biological target: HLA-A*68:02; assay: as above; conditions: source organism: Entamoeba histolytica HM-1:IMSS
# [27] = biological target: HLA-A*69:01; assay: as above; conditions: source organism: Entamoeba histolytica HM-1:IMSS
# [28] = biological target: HLA-B*15:01; assay: as above; conditions: source organism: Entamoeba histolytica HM-1:IMSS
# [29] = biological target: HLA-B*15:17; assay: as above; conditions: source organism: Entamoeba histolytica HM-1:IMSS
# [30] = biological target: HLA-B*18:01; assay: as above; conditions: source organism: Entamoeba histolytica HM-1:IMSS
# [31] = biological target: HLA-B*27:03; assay: as above; conditions: source organism: Entamoeba histolytica HM-1:IMSS
# [32] = biological target: HLA-B*39:01; assay: as above; conditions: source organism: Entamoeba histolytica HM-1:IMSS
# [33] = biological target: HLA-B*51:01; assay: as above; conditions: source organism: Entamoeba histolytica HM-1:IMSS
# [34] = biological target: HLA-B*57:01; assay: as above
# [35] = biological target: HLA-A*01:01; assay: IEDB peptide-MHC binding, purified MHC/direct/fluorescence; filed as Kd, often an IC50 or EC50 that approximates it; ≥ and ≤ were set here for values at or beyond the usual limits of such assays; conditions: source organism: Giardia lamblia ATCC 50803
# [36] = biological target: HLA-A*68:23; assay: IEDB peptide-MHC binding, purified MHC/competitive/fluorescence; filed as Kd, often an IC50 or EC50 that approximates it; ≥ and ≤ were set here for values at or beyond the usual limits of such assays; conditions: source organism: Giardia lamblia ATCC 50803
# [37] = biological target: HLA-C*04:01; assay: as above; conditions: source organism: Giardia lamblia ATCC 50803
# [38] = biological target: HLA-B*58:01; assay: as above; conditions: source organism: Human herpesvirus 4 strain B95-8
# [39] = source organism: dengue virus type 1
# [40] = source organism: Entamoeba histolytica HM-1:IMSS
# [41] = source organism: Giardia lamblia ATCC 50803
# [42] = source organism: Human herpesvirus 4 strain B95-8
sequence,measurement,setting,value
FTMRLLSPV,Kd,[1],2.29 µM
same,Kd,[2],≥ 20 µM
same,Kd,[3]; [39],0.316 µM
same,Kd,[4],0.098 µM
same,Kd,[5],0.116 µM
same,Kd,[6]; [39],≥ 5 µM
same,Kd,[7]; [39],≥ 5 µM
same,Kd,[8]; [39],0.015 µM
same,Kd,[9]; [39],≥ 5 µM
same,Kd,[10],0.00156 µM
same,Kd,[11],0.00344 µM
same,Kd,[12],0.00432 µM
same,Kd,[13],0.0298 µM
same,Kd,[14],0.00078 µM
KVSVGSYFC,Kd,[15],≥ 20 µM
same,Kd,[16],≥ 20 µM
same,Kd,[17],≥ 20 µM
same,Kd,[18],≥ 20 µM
same,Kd,[19],9 µM
same,Kd,[20],≥ 20 µM
same,Kd,[21],≥ 20 µM
same,Kd,[22]; [40],≥ 20 µM
same,Kd,[23],≥ 20 µM
same,Kd,[24],≥ 20 µM
same,Kd,[25],≥ 20 µM
same,Kd,[26],≥ 20 µM
same,Kd,[27],≥ 20 µM
same,Kd,[28],≥ 20 µM
same,Kd,[29],≥ 20 µM
same,Kd,[30],≥ 20 µM
same,Kd,[31],≥ 20 µM
same,Kd,[32],≥ 20 µM
same,Kd,[8]; [40],≥ 20 µM
same,Kd,[33],≥ 20 µM
same,Kd,[34]; [40],≥ 20 µM
MTDVDLNYY,Kd,[35],≤ 0.001 µM
same,Kd,[3]; [41],≥ 20 µM
same,Kd,[36],0.002 µM
same,Kd,[6]; [41],≥ 5 µM
same,Kd,[7]; [41],≥ 5 µM
same,Kd,[9]; [41],≥ 5 µM
same,Kd,[37],≥ 5 µM
VSFIEFVGW,Kd,[22]; [42],0.0629 µM
same,Kd,[34]; [42],0.0249 µM
same,Kd,[38],0.0011 µM

# Reference: the Immune Epitope Database (IEDB)
